Results published in US20020110800A1, “Use of SHP-1 and SHP-2 to detect compounds involved in neuronal survival” (McGill University, priority 1997, published 2002).

Columns and labels:
SHP-1 = experiment: NGF-stimulated tyrosine phosphorylation of SHP-1 (immunoprecipitation with anti-SHP-1, anti-pTyr blot); assay type: cell-based; conditions: PC12 cells; increased at 10 minutes, still elevated at 30 minutes of neurotrophin treatment
Protocol: FIG. 2 is a Western blot showing that NGF stimulates tyrosine phosphorylation of SHP-1 in PC12 cells. Lysates prepared from cells treated with NGF were immunoprecipitated with anti-SHP-1 and probed with an anti-phosphotyrosine (pTyr) antibody (top panel).
(§1) Immunoprecipitations and immunoblotting were performed as previously described (Kaplan et al., Science, 252:554-558, 1991). Briefly, after two washes with ice-cold Tris-buffered saline, cells were lysed in 1 ml of 1% Nonidet P-40 (NP-40 lysis buffer (20 mM Tris [pH8.0], 137 mM NaCl, 0.5 mM EDTA, 10% glycerol, 1 mM phenylmethylsulphonyl fluoride, 0.15 U/ml aprotinin, 20 μM leupeptin, 1 mM sodium vanadate) at 4° C. for 20 min. Insoluble material was removed by centrifugation at 4° C. for 10 min at 10,000× g. Immunoprecipitations were performed for 4-6 hr at 4° C. Precipitates were collected with protein A-Sepharose, then washed three times with NP-40 lysis buffer and once with water. The immunoprecipitates were boiled in sample buffer (2% SDS, 100 mM dithiothreitol, 10% glycerol, 0.25% bromophenol blue) for 5 min and electrophoretically fractionated by SDS-PAGE. Protein blots were probed overnight at 4° C. with antibody. […]

SHP-2 [1] = experiment: NGF-stimulated association of SHP-2 with tyrosine-phosphorylated proteins in PC12 cells; assay type: cell-based; conditions: proteins of 50 to 125 kDa
Protocol: FIG. 3 is a Western blot showing that NGF stimulates the association of SHP-2 with tyrosine-phosphorylated proteins in PC12 cells. Lysates prepared from PC12 cells treated with NGF for the indicated times were immunoprecipitated with anti-SHP-2 and probed with anti-pTyr antibodies.
as §1

SHP-2 [2] = experiment: NGF-stimulated association of SHP-2 with tyrosine-phosphorylated proteins in SCG neurons; assay type: cell-based, rat; conditions: NGF-treated SCG cultures
Excerpt: FIG. 4 is a Western blot showing that NGF stimulates an increased association of tyrosine-phosphorylated proteins with SHP-2 in SCG neurons. Lysates prepared from neurotrophin-treated SCGs were immunoprecipitated with anti-SHP-2 antibody and immunoblotted with anti-pTyr. Lanes 1 and 2: NGF-stimulated association of tyrosine-phosphorylated proteins with SHP-2. Lanes 3 and 4: NGF-stimulated increase in tyrosine phosphorylation of SCG proteins.
To determine the mechanism whereby the neutrotrophins stimulate the survival and growth of normal and injured neurons, we have asked whether the phosphoprotein phosphatases SHP-1 and SHP-2 play a role in the differentiation and survival of primary neurons, focusing our studies on cultured rat sympathetic cervical ganglion (SCG) and cortical neurons in order to determine the exact nature of this regulation.
Immunoprecipitations and immunoblotting were performed as previously described (Kaplan et al., Science, 252:554-558, 1991). […]

TrkB = target: T1, TrkB (Homo sapiens, UniProt Q16620); experiment: In vitro association of SHP with baculovirus-expressed TrkB; assay type: binding; conditions: autophosphorylated TrkB, insect cells
T1 construct: made in house; host or cells: Sf9 insect cells (recombinant baculovirus)
Protocol: (§2) FIG. 7 is a Western blot showing that SHP-1 associates with baculovirus-expressed TrkA, TrkB and TrkC. TrkA, B and C were activated and autophosphorylated in vitro, incubated with PC12 cell lysates, fractionated by electrophoresis, and probed with anti-SHP-1 (bottom panel), and anti-pan Trk antibodies (upper panel).
(§3) The in vitro association assay using baculovirus-expressed proteins was performed as described (Kaplan et al., supra). Briefly, Sf9 cells (2×10^6) were infected, harvested, and lysed in NP-40 lysis buffer. Trk proteins were immunoprecipitated with anti-Trk (203) antibody, and the immunoprecipitates were washed once with lysis buffer containing 1% deoxycholate and 0.1% SDS (RIPA), and three times with 50 mM Tris (pH 7.4). Trks then were activated (i.e. autophosphorylated) by incubation with 50 mM Tris (pH 7.4), 5 mM Mn Cl2, 1 mM ATP and 200 μM orthovanadate. Trk proteins then were washed twice with NP40 lysis buffer and were resuspended in 1 ml of PC12 cell lysate. The immunoprecipitated, activated Trk complexes were incubated with the cell lysate for 3 hr at 4° C., and then washed three times with NP-40 lysis buffer and once with 10 mM Tris (pH 7.4) before immunoblot analysis.
(§4) To investigate the mechanism whereby SHP inhibits NGF-induced signaling responses, we first asked whether the SHPs bound to Trk. […]

TrkA [3] = target: T2, TrkA (Homo sapiens, UniProt P04629); experiment: In vitro association of SHP with baculovirus-expressed TrkA; assay type: binding; conditions: autophosphorylated TrkA, insect cells
T2 construct: expressed in transfected cells; host or cells: Sf9 insect cells infected with recombinant baculoviruses
Protocol: as §2
Wild-type and mutant TrkA receptors expressed in Sf9 cells were autophosphorylated, incubated with PC12 lysates and immunoblotted with anti-SHP-2.
as §3, with “analysis. […]” for “analysis.”

TrkC = target: T3, TrkC (Homo sapiens, UniProt Q16288); experiment: In vitro association of SHP with baculovirus-expressed TrkC; assay type: binding; conditions: autophosphorylated TrkC, insect cells
T3 construct: made in house; host or cells: Sf9 insect cells (recombinant baculovirus)
Protocol: as §2, §3, §4

TrkA [4] = target: T2, TrkA; experiment: Trk dephosphorylation on coexpression with SHP in Sf9 insect cells; assay type: cell-based; conditions: wild-type TrkA coexpressed in insect cells; for dephosphorylation of Trk at the 674/675 sites: phospho-specific anti-Trk antibodies
Excerpt: (§5) FIG. 11 is a Western blot showing that Y490 and Y785 of TrkA are not required for SHP-1 and SHP-2-mediated dephosphorylation of TrkA in vivo. Lysates of Sf9 insect cells coexpressing SHP-1 or SHP-2 wild-type and mutant TrkAs, as indicated, were immunoprecipitated with anti-Trk and probed with anti-pTyr antibody (upper panel) to determine TrkA phosphorylation levels.
(§6) FIG. 12 is a Western blot showing that Y674/Y675 of TrkA are targets of SHP-1 and SHP-2-mediated dephosphorylation. Lysates of Sf9 insect cells co-expressing SHP-1 or SHP-2 and wild-type TrkA using antibodies that specifically recognize these phosphorylated residues. Blots were probed with anti-pan Trk (C,D), anti-SHP-1 (E,F), or anti-SHP2 (G,H) antibodies.
(§7) Sf9 insect cells (2×10^6) were infected with recombinant baculoviruses at a multiplicity of infection of 1 to 10 and lysed at 48 hr postinfection. Sf9 cells were assayed for the expression of the recombinant proteins by immunoblot analysis, as described above. Recombinant baculoviruses were prepared as previously described (Stephens et al., Neuron, 12:691-705, (1994).
(§8) We hypothesized that the suppressive effects of SHP upon NGF-mediated survival might be due to dephosphorylation of the autophosphorylated Trk receptor. Given that SHP-1 can bind to activated Trk and that SHP-2 is activated by Trk (see Example II), we sought to determine whether the SHPs could dephosphorylate TrkA in vitro and in vivo. Trk, SHP-1, and SHP-2 were expressed in Sf9 cells and isolated by immunoprecipitation with anti-Trk, anti-SHP-1, or anti-SHP-2 antibodies. Immunoprecipitated Trk was autophosphorylated by incubating with 10 mM MnCl2, 20 mM Tris pH 7.4 and 2.0 μCi/ml [γ-^32P]-ATP(3000 Ci/mmol) for 30 minutes at room temperature. Activated, radiolabeled Trk then was incubated with partially purified SHP-1 or SHP-2 for 20 minutes at 30° C. In vitro, both SHP-1 and SHP-2 are able to dephosphorylate Trk to a similar extent (FIG. 10) i.e., approximately 5-fold dephosphorylation. Moreover, coexpression of Trk with SHP-1 or SHP-2 in insect cells results in Trk dephosphorylation. In vivo, both SHP-1 and SHP-2 reduce Trk tyrosine phosphorylation, even when the receptors lack tyrosine 490 (Y490F) and/or tyrosine 785 (Y785F) (FIGS. 11 and 12).
(§9) In order to map the sites of dephosphorylation two approaches were taken. First, we asked whether Trks mutated at tyrosines 490 and 785 could be dephosphorylated by SHP-1 or SHP-2 when coexpressed in insect cells (FIG. 11). SHP-1 extensively dephosphorylates (about 8-fold) all of the Trks, both wild-type and mutated, whereas SHP-2 causes a more modest dephosphorylation (about 2-fold). […] To determine whether the two other major tyrosine phosphorylation sites in Trk, Y674 and 675, are substrates of the SHPs, wild-type TrkA and the SHPs were coexpressed in insect cells, and Trk phosphorylation at Y674, Y675 and Y490 was assessed using phospho-specific anti-Trk antibodies directed at tyrosines 674/675 and 490. SHP-1 completely dephosphorylates Trk (about 10-fold) at the 674/675 sites, while SHP-2 partially dephosphorylates Trk (about 2-fold) at these sites. Tyrosine phosphorylation of the Y490 site also is decreased by SHP-1. […] Since SHP-2 expression stimulates sympathetic neuron death (FIG. 6), we conclude that SHP functions by associating with neurotrophin-activated Trk, dephosphorylating the receptor at sites crucial for maintaining Trk activity, and thereby suppressing neuronal survival.

TrkA [5] = experiment: as above; assay type: cell-based; conditions: coexpressed in insect cells, anti-pTyr blot
Excerpt: as §5, §6, §7, §8, §9

Trk = target: T4, Trk (Homo sapiens, UniProt P04629); experiment: In vitro dephosphorylation of autophosphorylated 32P-labeled Trk by partially purified SHP; assay type: biochemical; conditions: 20 minutes at 30° C.
T4 construct: made in house; host or cells: Sf9 insect cells (recombinant baculovirus)
Protocol: FIG. 10 is an autoradiogram showing that SHP-1 and SHP-2 dephosphorylate Trk in vitro. Trk, SHP-1 and SHP-2 were expressed in Sf9 insect cells and isolated by immunoprecipitation with anti-Trk, anti-SHP-1 or anti-SHP-2 antibody. Immunoprecipitated Trk was autophosphorylated with [y-^32P]ATP and then was incubated with partially purified SHP-1 or SHP-2. Trk phosphorylation levels then were analyzed by SDS/PAGE and autoradiography.
as §8, with “Moreover, coexpression of Trk with SHP-1 or SHP-2 in insect cells results in Trk dephosphorylation. In vivo, both SHP-1 and SHP-2 reduce Trk tyrosine phosphorylation, even when the receptors lack tyrosine 490 (Y490F) and/or tyrosine 785 (Y785F) (FIGS. 11 and 12).” left out

T2 sequence (P04629 33-790 isoform P04629-2): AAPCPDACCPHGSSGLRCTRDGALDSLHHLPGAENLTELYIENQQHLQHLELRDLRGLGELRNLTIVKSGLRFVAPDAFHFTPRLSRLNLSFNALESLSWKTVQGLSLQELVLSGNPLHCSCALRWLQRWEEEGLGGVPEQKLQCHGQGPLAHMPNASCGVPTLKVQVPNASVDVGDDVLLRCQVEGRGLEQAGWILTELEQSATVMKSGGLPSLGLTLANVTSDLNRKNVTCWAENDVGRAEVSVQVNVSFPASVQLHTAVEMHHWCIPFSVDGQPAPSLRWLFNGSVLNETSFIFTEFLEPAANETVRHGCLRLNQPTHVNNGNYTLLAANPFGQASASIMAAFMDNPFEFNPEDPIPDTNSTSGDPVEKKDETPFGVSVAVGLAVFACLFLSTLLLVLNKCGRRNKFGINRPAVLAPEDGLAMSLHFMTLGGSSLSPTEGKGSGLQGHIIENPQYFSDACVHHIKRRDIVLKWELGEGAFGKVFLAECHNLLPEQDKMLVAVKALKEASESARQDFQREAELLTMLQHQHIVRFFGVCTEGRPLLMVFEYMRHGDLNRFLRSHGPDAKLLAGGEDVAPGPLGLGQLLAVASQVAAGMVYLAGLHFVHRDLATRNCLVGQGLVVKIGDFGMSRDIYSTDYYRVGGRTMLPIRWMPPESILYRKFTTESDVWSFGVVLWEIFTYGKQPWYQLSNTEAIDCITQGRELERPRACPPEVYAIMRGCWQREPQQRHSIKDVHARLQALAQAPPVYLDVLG
T4 sequence (P04629 33-790 isoform P04629-2 limits assumed): as the sequence (P04629 33-790 isoform P04629-2) above
T1 sequence (Q16620 32-822, species assumed): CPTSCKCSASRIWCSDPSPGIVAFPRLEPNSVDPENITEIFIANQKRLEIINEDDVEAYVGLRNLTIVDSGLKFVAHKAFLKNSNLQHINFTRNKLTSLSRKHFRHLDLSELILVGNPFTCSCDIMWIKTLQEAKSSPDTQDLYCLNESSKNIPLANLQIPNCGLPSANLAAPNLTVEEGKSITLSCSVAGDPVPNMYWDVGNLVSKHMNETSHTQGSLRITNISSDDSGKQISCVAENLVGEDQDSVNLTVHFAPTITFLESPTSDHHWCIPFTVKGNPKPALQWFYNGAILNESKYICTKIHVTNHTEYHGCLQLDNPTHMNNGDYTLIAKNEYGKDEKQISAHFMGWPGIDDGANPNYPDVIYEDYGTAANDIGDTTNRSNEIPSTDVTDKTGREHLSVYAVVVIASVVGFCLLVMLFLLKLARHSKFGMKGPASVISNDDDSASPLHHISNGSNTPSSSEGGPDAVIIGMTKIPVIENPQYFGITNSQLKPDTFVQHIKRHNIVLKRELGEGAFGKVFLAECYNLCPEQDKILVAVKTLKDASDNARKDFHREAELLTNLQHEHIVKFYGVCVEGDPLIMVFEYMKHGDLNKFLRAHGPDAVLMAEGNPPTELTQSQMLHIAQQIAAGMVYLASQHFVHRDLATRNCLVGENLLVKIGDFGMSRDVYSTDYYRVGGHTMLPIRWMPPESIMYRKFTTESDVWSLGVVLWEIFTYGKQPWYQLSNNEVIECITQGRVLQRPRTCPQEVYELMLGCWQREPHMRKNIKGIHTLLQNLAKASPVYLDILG
T3 sequence (Q16288 32-839, species assumed): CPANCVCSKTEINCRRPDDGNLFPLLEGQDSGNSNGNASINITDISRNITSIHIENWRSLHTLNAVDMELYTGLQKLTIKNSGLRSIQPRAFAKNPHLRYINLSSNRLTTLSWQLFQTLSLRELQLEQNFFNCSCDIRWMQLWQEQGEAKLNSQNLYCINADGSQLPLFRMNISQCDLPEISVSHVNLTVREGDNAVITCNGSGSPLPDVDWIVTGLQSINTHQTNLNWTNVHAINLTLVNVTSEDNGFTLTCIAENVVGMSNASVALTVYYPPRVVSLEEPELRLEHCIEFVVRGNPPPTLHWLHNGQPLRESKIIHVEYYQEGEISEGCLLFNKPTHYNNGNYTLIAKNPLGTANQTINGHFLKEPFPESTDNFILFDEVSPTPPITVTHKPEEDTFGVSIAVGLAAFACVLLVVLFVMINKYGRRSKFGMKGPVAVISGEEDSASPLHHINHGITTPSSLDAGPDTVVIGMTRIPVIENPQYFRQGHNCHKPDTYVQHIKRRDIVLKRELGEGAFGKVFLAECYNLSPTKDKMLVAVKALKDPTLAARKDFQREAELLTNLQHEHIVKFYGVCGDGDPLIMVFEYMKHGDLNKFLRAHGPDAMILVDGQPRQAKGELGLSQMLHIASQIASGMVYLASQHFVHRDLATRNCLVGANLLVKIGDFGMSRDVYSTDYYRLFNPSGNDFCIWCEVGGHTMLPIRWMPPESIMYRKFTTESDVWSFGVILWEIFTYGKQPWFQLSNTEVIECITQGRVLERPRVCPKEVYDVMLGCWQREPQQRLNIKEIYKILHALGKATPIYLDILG

Substance | tyrosine phosphorylation of SHP-1 (SHP-1) | association of SHP-2 with tyrosine phosphorylated proteins (SHP-2 [1]) | association of SHP-2 with tyrosine phosphorylated proteins (SHP-2 [2]) | binding to activated Trk (TrkB) | binding to activated Trk (TrkA [3]) | binding to activated Trk (TrkC) | dephosphorylation of Trk at the 674/675 sites (TrkA [4]) | tyrosine phosphorylation of the Y490 site (TrkA [4]; phospho-specific anti-Trk antibody) | dephosphorylation of Trks, wild-type and mutated at tyrosines 490 and 785 (TrkA [5]) | dephosphorylation of Trk in vitro (Trk)
NGF: prototypical neurotrophin, Nerve Growth Factor, obtained from Peprotech | stimulates an increase in the tyrosine phosphorylation of SHP-1 | stimulates the association of SHP-2 with a number of tyrosine phosphorylated proteins | SHP-2 could be seen to associate with at least five tyrosine phosphorylated proteins | – | – | – | – | – | – | –
SHP-1: nontransmembrane protein-tyrosine phosphatase containing SH2 domains, GenBank Accession Number M77273 | – | – | – | binds to activated (i.e. autophosphorylated) TrkA, TrkB and TrkC | binds to activated (i.e. autophosphorylated) TrkA, TrkB and TrkC | binds to activated (i.e. autophosphorylated) TrkA, TrkB and TrkC | about 10 fold | decreased | about 8 fold | approximately 5 fold
SHP-2: nontransmembrane protein-tyrosine phosphatase containing SH2 domains, GenBank Accession Number L03535 | – | – | – | – | unable to bind to Trk | – | about 2 fold | – | about 2 fold | approximately 5 fold
